The values below come from patent US20020037853A1.

The target of test [1] is cell surface receptors for collagen on human dermal fibroblasts. In words: attachment of fibroblasts to collagen-coated dishes, peptide in the medium at 35 × 10^-6 M; competitor collagen.
The target is the same in test [2]. In words: about 100,000 human fetal dermal fibroblasts on coated glass coverslips, 15 min, attached cells counted; uncoated control 7.01.
For test [3] the target is unchanged. In words: fibroblast attachment to coated coverslips, 15 min.
Test [4] shares this target. In words: various other similar cell attachment studies on glass or polystyrene.
For test [5] the target is unchanged. Description: fibroblast attachment to coated coverslips, 15 min; reference collagen.
Test [6] shares this target. Description: attachment of fibroblasts to collagen-coated dishes, peptide in the medium at 36 × 10^-6 M; competitor collagen.
For test [7] the target is unchanged. Description: attachment of fibroblasts to collagen-coated dishes, peptide in the medium at 7.2 × 10^-6 M; competitor collagen.
For test [8] the target is unchanged. Description: cell-binding activity relative to the inventive peptide of Examples 1 and 2.
Test [9] has the same target. In words: attachment of fibroblasts to collagen-coated dishes, polyproline in the medium at 1.7 × 10^-6 M; competitor collagen.
For test [10] the target is unchanged. In words: biological (cell-binding) activity relative to P-15; assay not described there.
The target is the same in test [11]. Description: cell-binding activity relative to the SEQ ID NO:1 peptide.

No end group written: not given here.

In test [1], “Dynorphin 1-13 (from UniProt P01213 207-219) (peptide)” yielded a % Inhibition of Cell Attachment of 19% and a % of Maximal Cell Attachment of 81%.

“Rat tail tendon collagen (rat tail type I collagen) (from UniProt P02454 152-1207; P02466 86-1125)” gave a Concentration of Cells (relative binding of cells after 15 minutes) in [2] of 8.59.

The substance “Inventive peptide Gly-Thr-Pro-Gly-Pro-Gln-Gly-Ile-Ala-Gly-Gln-Arg-Gly-Val-Val (SEQ ID NO:1)” yielded an increase in cell binding over the control (no collagen or peptide) in [3] of 60%. In test [4], this substance registered a potency in binding cells relative to collagen (fold over collagen) of 2. In [5], the increase in cell binding over collagen-coated dishes was found to be 40%. Besides, the % Inhibition of Cell Attachment was 88% in [6] and 85% in test [7]. Moreover, the % of Maximal Cell Attachment came to 12% in test [6] and 15% in test [7]. In test [2], this substance came in with a Concentration of Cells (relative binding of cells after 15 minutes) of 11.1.

Regarding QGIAGQR (SEQ ID NO:4), in test [8], the Relative Cell-Binding Activity (% relative to the SEQ ID NO:1 peptide) was found to be 60.

Substance “Gly-Ile-Ala-Gly-Gln (SEQ ID NO:6) (peptide)” gave a Relative Cell-Binding Activity (% relative to the SEQ ID NO:1 peptide) in test [8] of 70.

QGAIAQ (SEQ ID NO:7) showed a Relative Cell-Binding Activity (% relative to the SEQ ID NO:1 peptide) in test [8] of 70.

Substance GPQGIAGQR (SEQ ID NO:2) registered a Relative Cell-Binding Activity (% relative to the SEQ ID NO:1 peptide) in test [8] of 100.

In [8], QGIAGQ (SEQ ID NO:3) returned a Relative Cell-Binding Activity (% relative to the SEQ ID NO:1 peptide) of 120.

On to Polyproline (peptide), for which, in test [9], the % Inhibition of Cell Attachment was 10% and the % of Maximal Cell Attachment is 90%.

FGIAGF (SEQ ID NO:5) returned a Relative Cell-Binding Activity (% relative to the SEQ ID NO:1 peptide) in test [8] of 87.

As to dipeptide -Ile-Ala-, the biological activity relative to P-15 in [10] was 60%.

On to “Gln-Gly-Ile-Ala-Gly (SEQ ID NO:8) (peptide)”, for which the cell-binding activity relative to the SEQ ID NO:1 peptide in [11] turned out to be 42%.

In test [1], “human preangiotensinogen 1-14 (from UniProt P01019 25-38) (peptide)” yielded a % Inhibition of Cell Attachment of 12% and a % of Maximal Cell Attachment of 88%.
